The values below come from US12018058B2, “Compositions and methods for diagnosing and/or treating kidney injury” (Boston Medical Center Corporation, priority 2018, dated 2024).

Entries after “also recorded” stand apart in the source; their conditions may differ.

What all share (assay type): cell-based
The subject of one data set is PTEC. Put plainly: Toxicity of pharmacologic agents in PTEC. The settings on record: exposure to the IC50 dose for 48-72 hr; data not shown. The text has this:
The inventors have also tested pharmacologic agents that disrupt NPM-Bax at specific steps in the cell death pathway (outlined in FIG. 11). These agents include geronylgeronylacetone (GGA), a potent Hsp70 inducer86, avrainvillamide, and NSC34888437. […] The inventors recently reported that GGA induces Hsp70 in murine PTEC and in the intact murine kidney. Hsp70 markedly reduces NPM-Bax complex formation during ischemic stress by 2 distinct mechanisms: a nucleolar-restricted Hsp70 mutant limits NPM translocation into the cytosol, whereas a cytosol restricted Hsp70 mutant sequesters […].

The next data set concerns primary human PTECs. The settings on record: PTECs, ATP depletion; versus control peptide. How it is done: Exposure to metabolic inhibitors is an established model of ischemic stress that reduces ATP content to, 10% of baseline values until recovery is initiated.24,26 To achieve ATP depletion, cells were washed three times in glucose-free DMEM (Invitrogen, Carlsbad, CA) followed by incubation in glucose-free DMEM containing sodium cyanide (5 mM) and 2-deoxy-glucose (5 mM) for the indicated times.26
Recovery was initiated by replacing the stress medium described above with complete primary cell culture medium containing glucose and substrates that support the rapid restoration of cell ATP.27
For in vitro testing in primary human PTECs, peptides ([…]) were tested that replicate the Bax domain responsible for binding NPM,34 or two peptides designed to interfere with NPM function were compared with a random nonspecific sequence of the same length (control). Peptides intended to interfere with NPM function overlap key phosphorylation sites located at the NPM amino terminus (peptide 2) or carboxy terminus (peptide 3) detected by mass spectrometry. To improve cell uptake, all peptides contained a cell-penetrating sequence13. For in vivo experiments, a renal-targeting sequence (NLS) was added to enhance renal peptide uptake.35 Peptides were commercially synthesized (Biomatik, Wilmington, DE) J Am Soc Nephrol 30: ccc-ccc, 2018 Nucleophosmin in AKI 3www.jasn.org BASIC RESEARCHas follows: NPM-Bax blocking peptide: Ac-KKKRKV-(bA)-[…]-COOH (SEQ ID NO: 8); peptide 2: AC-PKKKRKV-(bA)-[…]-COOH (SEQ ID NO: 9); and peptide 3: AC-PKKKRKV-(bA)-ESFKK-QEKTPKTPKGPSSVED-IKAK-COOH (SEQ ID NO: 10). A single dose ([…] of the NPM-Bax blocking or control peptide) was administered by tail vein injection immediately after release of the pedicle clamps(0 timepoint) […] in each experimental group. A total of 42 control and 56 experimental animals were studied.
Transient exposure to metabolic inhibitors replicates ischemia in vivo by activating Bax and causing cell death.13,29,36-38 Cell viability was assayed using a modified colorimetric technique (MTTassay).37 The number of surviving cells is expressed as a percentage of viable control cells detected at baseline. Serum BUN and creatinine levels were measured in tail vein blood samples for 7 days after ischemia using QuantiChrom BUN or creatinine assay kits (BioAssay Systems, Hayward, CA) according to the manufacturer's instructions.

In data set [1] the test system is primary murine proximal tubule epithelial cells (PTECs). Put plainly: Functional bioassays of flag-tagged NPM phosphomimic proteins expressed in PTECs. The settings on record: for Postischemia cell survival: 60 minutes ATP depletion, FIG. 5E; for NPM localization in resting cells: absence of ischemic stress, FIG. 5A; for NPM-Bax complex formation: after ATP depletion, FIG. 5C; for NPM and active Bax accumulation in isolated mitochondria: after ischemic stress, FIG. 5D; for NPM oligomeric state: resting cells, native gel, FIG. 5B. The source says: The biologic behavior of nucleophosmin (NPM) phosphomimic proteins assessed using functional bioassays performed in primary murine proximal tubule epithelial cells (PTECs) that express flag-tagged wild type (WT), a normal (Nor-M or NrNPM) NPM mimic protein, or a stress (Stre-M, StNPM, or Stress-M) NPM mimic protein that replicates differential NPM phosphorylation. […] EV, empty sgOpti vector; RDU, relative density unit. *P, 0.05 for Nor-M and Stress-M NPM phosphomimics versus control (CTL).
Human NPM cDNA (catalog no. 34553; Addgene, Cambridge, MA) and pCDH lentivector systems (System Biosciences, Mountain View, CA) were used to generate NPM wild-type, “NPM stress mimic” (T86E-S88E-T95E-T234A-S242A), and “NPM normal mimic” (T86A-S88A-T95A-T234E-S242E) lentiviral expression plasmids by PCR-based mutagenesis with a flag tag fused to the 59 open reading frame. PCR products were cloned into pCDH vector BamHI/EcoRI sites. All constructs were confirmed by DNA sequencing before cotransfection with pPACKG1 lentivector packaging plasmids into HEK293NT cells to generate lentipseudoviral particles. The resultant pseudoviruses were harvested and purified, and titers were determined according to the manufacturer's instructions. Cells were exposed to virus (MOT 5-8) diluted in Opti-MEM (Invitrogen). After 6 hours incubation with virus-infected medium, a complete culture medium was substituted for an additional 16-hour incubation period.
To determine the biologic role of differential NPM phosphorylation at these five serine/threonine sites and the contribution to cytotoxicity, two flag-tagged NPM phosphomutant proteins as well as wild-type NPM were generated and introduced into human proximal tubule cells. These two mimic proteins replicated the phosphorylation state of NPM in either its normal or stressed configuration at the five differentially phosphorylated sites identified by mass spectrometry (FIG. 4). Specific bioassays were then used to assess the effect of these five post-translational phosphorylation changes on toxic NPM behaviors, including translocation, deoligomerization, NPM-Bax complex formation, mitochondrial NPM and Bax accumulation, and cell death.
Based on this phospho-proteomic data, 32 site-specific, amino terminal, flag-tagged NPM proteins with differential phosphorylation were generated (see FIG. 4B) and placed in a lentiviral vector ([…] phospho-mimic proteins; ref Wang, Havasi et al. 2011). Both the plasmid sequence and protein expression were confirmed. Serine or threonine residues in each of the NPM phospho-mimics was rendered either nonphosphorylatable (alanine substitution) or phospho-mimetic (glutamic acid substitution) at each of the 5 NPM residues identified by mass spec to be altered by ischemia. These NPM phospho-mimics represent all of the possible combinations of constitutively non-phosphorylated and phosphorylated variants at all of the 5 phosphosites ([…], see table, FIG. 4B). The flag epitope facilitates immunohistochemistry for detecting NPM distribution, NPM oligomerization and immunoprecipitation (IP) for detecting interaction between Bax and each NPM phospho-mimic. To establish a causal link between phosphorylation and NPM-function, a flag-tagged NPM mimic that replicated the NPM phospho-state in healthy PTEC and kidney tissue (#10, “normal NPM mimic”) or replicated NPM phosphorylation in post-ischemic cells and tissue (#11; “stress-NPM mimic”; FIG. 4B) was introduced into primary murine PTEC for further study. Dramatic differences in the biologic behavior of these 2 NPM phospho-mimics were detected. […] Using this phospho-data generate 2 new therapeutic peptides that target either T86, S88 and T95 or T232 and S240 were generated (FIG. 4A) and tested (FIG. 7). Screening the remaining NPM mimic proteins can identify the specific function of all 5 phospho-sites.

The mark [2] stands for this setting: listed as normal NPM-phospho-mimic.

As to `CC1(C)C=Cc2c(ccc3c2[N+]([O-])=C2C3=C[C@@]34NC(=O)[C@]5(CCCN5C3=O)C[C@H]4C2(C)C)O1` [avrainvillamide], the “PTEC morphology and toxicity” value with PTEC is “does not alter PTEC morphology or cause significant toxicity”.

For the molecule “AC-PKKKRKV-(bA)-TLKMSVQPTVSLGGFEITPPVVLRLK-COOH (PKKKRKVATLKMSVQPTVSLGGFEITPPVVLRLK; N-acetyl, NLS PKKKRKV, beta-alanine linker; MOD_RES (8)..(8) Beta-alanine) [peptide #2]”, in the data set on primary human PTECs, the “Cell survival after ischemic stress” value is given as “significantly improve cell survival”.

With `O=C(C[n+]1cccc2cc(Cl)ccc21)c1cccc([N+](=O)[O-])c1.[Br-]` [NSC34888437], in the data set with PTEC, the “PTEC morphology and toxicity” value is reported as “does not alter PTEC morphology or cause significant toxicity”.

Turning to “AC-PKKKRKV-(bA)-ESFKK-QEKTPKTPKGPSSVED-IKAK-COOH (PKKKRKVAESFKKQEKTPKTPKGPSSVEDIKAK; N-acetyl, NLS PKKKRKV-betaAla N-terminal; MOD_RES (8)..(8) Beta-alanine) [peptide #3]”, in the data set with primary human PTECs, the “Cell survival after ischemic stress” value is reported as “significantly improve cell survival”.

B1: normal mimic NPM: flag-tagged NPM phosphomutant T86A-S88A-T95A-T234E-S242E expressed by lentivirus (protein)
chain: MEDSMDMDMSPLRPQNYLFGCELKADKDYHFKVDNDENEHQLSLRTVSLGAGAKDELHIVEAEAMNYEGSPIKVTLATLKMSVQPAVALGGFEIAPPVVLRLKCGSGPVHISGQHLVAVEEDAESEDEEEEDVKLLSISGKRSAPGGGSKVPQKKVKLAADEDDDDDDEEDDDEDDDDDDFDDEEAEEKAPVKKSIRDTPAKNAQKSNQNGKDSKPSSTPRSKGQESFKKQEKEPKTPKGPESVEDIKAKMQASIEKGGSLPKVEAKFINYVKNCFRMTDQEAIQDLWQWRKSL
modifications: left off: small tags and cut ends
notes: flag-tagged NPM phosphomutant T86A-S88A-T95A-T234E-S242E expressed by lentivirus
In the case of B1, in data set [1], the Postischemia cell survival entry is “significantly reduced cell death; also recorded: improved PTEC survival”; the NPM-Bax complex formation result was “decreased NPM-Bax complex formation”; the “NPM and active Bax accumulation in isolated mitochondria” value (“NPM and active Bax accumulation” below) is “decreased”; the NPM oligomeric state result was “formed large oligomers”. For the same molecule, in data set [1] (listed as normal NPM phosphomimic), the “NPM localization in resting cells” value is “accumulated in a nucleolar pattern”. Further, in data set [1] (setting [2]), the “NPM localization in resting cells” value was “exclusively localized to nucleoli”; the NPM-Bax complex formation result is reported as “minimally complexed with Bax”; the “NPM and active Bax accumulation” value is listed as “did not accumulate in isolated mitochondria”; the NPM oligomeric state result was “remained in the oligomerized state”.

B2: stress mimic NPM: flag-tagged NPM phosphomutant T86E-S88E-T95E-T234A-S242A expressed by lentivirus (protein)
chain: MEDSMDMDMSPLRPQNYLFGCELKADKDYHFKVDNDENEHQLSLRTVSLGAGAKDELHIVEAEAMNYEGSPIKVTLATLKMSVQPEVELGGFEIEPPVVLRLKCGSGPVHISGQHLVAVEEDAESEDEEEEDVKLLSISGKRSAPGGGSKVPQKKVKLAADEDDDDDDEEDDDEDDDDDDFDDEEAEEKAPVKKSIRDTPAKNAQKSNQNGKDSKPSSTPRSKGQESFKKQEKAPKTPKGPASVEDIKAKMQASIEKGGSLPKVEAKFINYVKNCFRMTDQEAIQDLWQWRKSL
modifications: left off: small tags and cut ends
notes: flag-tagged NPM phosphomutant T86E-S88E-T95E-T234A-S242A expressed by lentivirus
As for B2, in data set [1], the Postischemia cell survival entry is “significantly lower”; the NPM-Bax complex formation result is listed as “substantially greater”; the “NPM and active Bax accumulation” value is listed as “exceeded that observed with wild-type or normal mimic NPM”; the NPM oligomeric state entry is “accumulated as small monomers”. In data set [1] (listed as stress NPM mimic), the Postischemia cell survival result is listed as “significantly decreased PTEC survival”; the “NPM localization in resting cells” value is recorded as “exclusively localized to the cytosol”; the NPM-Bax complex formation result is listed as “markedly increased NPM-Bax complex formation”; the “NPM and active Bax accumulation” value is on record as “dramatically increased NPM accumulation in isolated mitochondria”. In data set [1] (listed as stress NPM mimic), the NPM oligomeric state entry is “caused marked NPM de-oligomerization”. The “NPM localization in resting cells” value in data set [1] (listed as NPM stress mimic protein) is recorded as “localized to the cytosol”.
